Measured values: patent US20050054043A1 (UNIVERSITY OF VERMONT, published 2005)

Assays:
[1] = target: T1, transferrin receptor on HeLa S3 cells (human, UniProt P02786 1-760); experiment: direct equilibrium binding of radioiodinated diferric transferrin to HeLa S3 cells, LIGAND fit (apparent Kd')
T1 construct: whole, on cells; also called human receptors; cell-surface transferrin receptors
Procedure: After 30 min of incubation at 37° C. with gentle shaking, portions of the cell suspension (3×100 μL) were pipetted into microfuge tubes containing 0.9 mL of ice-cold JMEM-BSA over 300 μL of dibutyl phthalate and centrifuged for 2 min in a Beckman microfuge. The aqueous and organic phases were aspirated to just above the cell pellet. The bottom of the tube containing the cell pellet was released by a hot wire into a plastic tube (12×75 mm) and assayed for radioactivity.

[2] = target: T1, transferrin receptor on HeLa S3 cells; experiment: competition of unlabeled transferrin against radioiodinated Boehringer Mannheim hTf on HeLa S3 cells, LIGAND fit (apparent Kd')
Procedure: Cells were routinely grown in DMEM-F-12 containing 10% newborn calf serum. Prior to beginning a binding experiment, the cells were harvested with Versene, and taken up in Joklik's minimum essential medium-20 mM Hepes-2% BSA (JMEM-BSA). Endogenous bovine transferrin was removed from the HeLa cells by incubation for 10 min at 37° C. at a 5-fold dilution with JMEM-BSA. After centrifugation of the cells and removal of the supernatant, this procedure was repeated twice. […] After 30 min of incubation at 37° C. with gentle shaking, portions of the cell suspension (3×100 μL) were pipetted into microfuge tubes containing 0.9 mL of ice-cold JMEM-BSA over 300 μL of dibutyl phthalate and centrifuged for 2 min in a Beckman microfuge. The aqueous and organic phases were aspirated to just above the cell pellet. The bottom of the tube containing the cell pellet was released by a hot wire into a plastic tube (12×75 mm) and assayed for radioactivity.

T1 sequence (P02786 whole entry): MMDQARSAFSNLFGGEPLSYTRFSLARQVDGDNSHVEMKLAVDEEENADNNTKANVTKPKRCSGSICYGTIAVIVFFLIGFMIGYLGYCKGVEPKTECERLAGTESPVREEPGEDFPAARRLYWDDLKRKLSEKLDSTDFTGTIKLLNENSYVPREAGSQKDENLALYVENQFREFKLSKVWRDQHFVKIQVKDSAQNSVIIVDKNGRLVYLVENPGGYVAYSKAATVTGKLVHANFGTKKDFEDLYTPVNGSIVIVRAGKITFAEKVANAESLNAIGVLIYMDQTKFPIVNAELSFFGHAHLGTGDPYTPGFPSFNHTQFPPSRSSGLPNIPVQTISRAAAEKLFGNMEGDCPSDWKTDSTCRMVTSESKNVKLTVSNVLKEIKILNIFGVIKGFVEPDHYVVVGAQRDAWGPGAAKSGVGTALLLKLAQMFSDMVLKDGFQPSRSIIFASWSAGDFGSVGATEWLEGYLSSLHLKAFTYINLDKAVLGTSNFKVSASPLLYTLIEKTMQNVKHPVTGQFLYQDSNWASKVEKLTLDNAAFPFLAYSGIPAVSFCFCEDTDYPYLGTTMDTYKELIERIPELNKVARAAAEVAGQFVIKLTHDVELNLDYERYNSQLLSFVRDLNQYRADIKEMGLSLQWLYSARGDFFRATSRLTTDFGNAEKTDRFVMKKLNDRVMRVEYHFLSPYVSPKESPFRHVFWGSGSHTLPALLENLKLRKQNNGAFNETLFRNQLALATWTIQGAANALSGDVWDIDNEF

Kd [1]: 23.4 nM | Kd [2]: 19.8 nM
B1: hTf N413D/N611D mutant (recombinant nonglycosylated human serum transferrin), diferric (ligand)
chain: VPDKTVRWCAVSEHEATKCQSFRDHMKSVIPSDGPSVACVKKASYLDCIRAIAANEADAVTLDAGLVYDAYLAPNNLKPVVAEFYGSKEDPQTFYYAVAVVKKDSGFQMNQLRGKKSCHTGLGRSAGWNIPIGLLYCDLPEPRKPLEKAVANFFSGSCAPCADGTDFPQLCQLCPGCGCSTLNQYFGYSGAFKCLKDGAGDVAFVKHSTIFENLANKADRDQYELLCLDNTRKPVDEYKDCHLAQVPSHTVVARSMGGKEDLIWELLNQAQEHFGKDKSKEFQLFSSPHGKDLLFKDSAHGFLKVPPRMDAKMYLGYEYVTAIRNLREGTCPEAPTDECKPVKWCALSHHERLKCDEWSVNSVGKIECVSAETTEDCIAKIMNGEADAMSLDGGFVYIAGKCGLVPVLAENYDKSDNCEDTPEAGYFAVAVVKKSASDLTWDNLKGKKSCHTAVGRTAGWNIPMGLLYNKINHCRFDEFFSEGCAPGSKKDSSLCKLCMGSGLNLCEPNNKEGYYGYTGAFRCLVEKGDVAFVKHQTVPQNTGGKNPDPWAKNLNEKDYELLCLDGTRKPVEEYANCHLARAPNHAVVTRKDKEACVHKILRQQQHLFGSDVTDCSGNFCLFRSETKDLLFRDDTVCLAKLHDRNTYEKYLGEEYVKAVGNLRKCSTSSLLEACTFRRP
modifications: non-glycosylated; diferric (iron-saturated); radioiodinated in Table 2 (A), unlabeled in (B)
notes: Full-length human transferrin with both N-glycosylation sites changed to Asp, expressed in BHK cells; Positions use mature-protein numbering; also called hTf(N/D)
